Assays:
HLA-A*24:02 [1] = test: IEDB peptide-MHC binding, purified MHC/competitive/fluorescence; ≥ and ≤ were set here for values at or beyond the usual limits of such assays
HLA-B*44:03 = test: IEDB peptide-MHC binding, purified MHC/competitive/radioactivity; filed as Kd, often an IC50 or EC50 that approximates it; ≥ and ≤ were set here for values at or beyond the usual limits of such assays; settings: source organism: Dengue virus 2 Jamaica/1409/1983
HLA-B*44:02 = test: as above; settings: source organism: Dengue virus 2 Jamaica/1409/1983
HLA-A*23:01 = test: as above
HLA-A*30:02 = test: as above
HLA-A*29:02 = test: as above
HLA-A*01:01 = test: as above
HLA-A*24:02 [2] = test: as above
HLA-A*26:01 [3] = test: as above
HLA-A*68:02 = test: as above
HLA-A*11:01 = test: as above; settings: source organism: Vaccinia virus WR
HLA-A*03:01 = test: as above; settings: source organism: Vaccinia virus WR
HLA-A*33:01 = test: as above; settings: source organism: Vaccinia virus WR
HLA-A*68:01 = test: as above; settings: source organism: Vaccinia virus WR
HLA-A*31:01 = test: as above; settings: source organism: Vaccinia virus WR
HLA-A*26:01 [4] = test: IEDB peptide-MHC binding, purified MHC/direct/fluorescence; filed as Kd, often an IC50 or EC50 that approximates it; ≥ and ≤ were set here for values at or beyond the usual limits of such assays
[5] = source organism: SARS coronavirus Tor2
[6] = source organism: Mammarenavirus whitewaterense

Sequence | Kd (HLA-A*23:01; [5]) | Kd (HLA-A*30:02; [5]) | Kd (HLA-A*29:02; [5]) | Kd (HLA-A*01:01; [5]) | Kd (HLA-A*24:02 [2]; [5]) | Kd (HLA-A*26:01 [3]; [5]) | other results
AEGVIAFLI |  |  |  |  |  |  | IC50 (HLA-A*24:02 [1]; source organism: Sudan ebolavirus): 440 nM
AEMEEALRG |  |  |  |  |  |  | Kd (HLA-B*44:03): 13.2 nM; Kd (HLA-B*44:02): 4.65 nM
DSFKEELDKY | ≥ 70000 nM | 299 nM | 399 nM | 754 nM | ≥ 70300 nM | 416 nM | 
DYRHYSASF | 88.7 nM | 4340 nM | 25.7 nM | ≥ 41800 nM | 215 nM | 7410 nM | 
EAAAIFMTA |  |  |  |  |  |  | Kd (HLA-A*68:02; source organism: Dengue virus 1 Brazil/97-11/1997): 0.301 nM
EGCPKPHRL |  |  |  |  |  |  | Kd (HLA-A*23:01; [6]): ≥ 77700 nM; Kd (HLA-A*30:02; [6]): 12400 nM; Kd (HLA-A*29:02; [6]): ≥ 43700 nM; Kd (HLA-A*01:01; [6]): 13900 nM; Kd (HLA-A*24:02 [2]; [6]): ≥ 46800 nM; Kd (HLA-A*26:01 [3]; [6]): ≥ 77900 nM
EKEFLRYLL |  |  |  |  |  |  | IC50 (HLA-A*24:02 [1]; source organism: Vaccinia virus): ≥ 116000 nM
ELMMATIGI |  |  |  |  |  |  | Kd (HLA-A*68:02; source organism: Dengue virus 2 Jamaica/1409/1983): 1.03 nM
ESRPFDLIKK |  |  |  |  |  |  | Kd (HLA-A*11:01): 74.2 nM; Kd (HLA-A*03:01): 236 nM; Kd (HLA-A*33:01): 1000 nM; Kd (HLA-A*68:01): 2.14 nM; Kd (HLA-A*29:02; source organism: Vaccinia virus WR): ≥ 71400 nM; Kd (HLA-A*31:01): 257 nM
EYTYPDSLE |  |  |  |  |  |  | IC50 (HLA-A*24:02 [1]; source organism: Zaire ebolavirus): ≥ 190000 nM
FVLALLAFF |  |  |  |  |  |  | Kd (HLA-A*26:01 [4]; source organism: West Nile virus): ≥ 20000 nM
GMEAQFLYLY | ≥ 46400 nM | 147 nM | 28.7 nM | 181 nM | ≥ 57400 nM | 12300 nM | 
GYQPYRVVVL | 53.4 nM | ≥ 78900 nM | 1230 nM | ≥ 70400 nM | 201 nM | ≥ 69700 nM | 
HISRQRLTKY | ≥ 70000 nM | 581 nM | 1020 nM | 12100 nM | ≥ 70300 nM | 1160 nM | 
HTKKEMRSF |  |  |  |  |  |  | Kd (HLA-A*26:01 [4]; source organism: Bacillus cereus NVH0597-99): 15 nM

From the Immune Epitope Database (IEDB)
